{"source": "paper PMC3124082", "biological_target": "Putative NADPH-quinone reductase", "assay": "SAXS"}
{"substance": "Putative NADPH-quinone reductase (natural protein)", "values": [{"measurement": "fraction of dimer in the oligomer mixture", "value": 47, "unit": "%"}, {"measurement": "fraction of tetramer in the oligomer mixture", "value": 53, "unit": "%"}]}
